The supplement of paper PMC10567573

B1: RSPH3 (parent)
chain: MTVKPAKAASLARNLAKRRRTYLG

Variants of: B1
Assay: protein stability index of a GFP-peptide fusion (GPS, HEK-293T) (PSI 1-6); higher = more stable
Details: c terminus: a fixed tail appended
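Further: lentivirally expressed fusions sorted by FACS into six bins by GFP to DsRed ratio, PSI derived from sequencing read proportions per bin multiplied by bin number.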

Protein stability index: each site, then its substitutions
M1: Y 2.55 | S 3.02 | I 2.15 | N 3.88 | W 2.31 | P 3 | K 2.33 | Q 3.95 | L 3.36 | H 3.45 | E 2.46 | F 2.35 | G 3.28
L11: N 3.99 | R 2.18 | M 3.16 | W 1.83 | K 3.15 | H 3.66 | A 4 | F 2.19 | C 2.54 | P 3.68 | G 3 | S 3.29 | Y 3.01 | E 4.03 | I 2.61 | D 3.46 | Q 3.79 | T 3.36 | V 3.3
K7: L 3.62 | T 3.06 | Q 3.88 | R 2.96 | E 3.59 | C 2.56 | N 3.21 | A 3.46 | S 2.66 | W 3.15 | H 3.82 | I 2.46 | V 2.44 | P 3.18 | Y 2.23 | F 2.2 | G 3.13 | D 3.25 | M 2.93
N14: Y 2.75 | D 3.08 | V 2.53 | K 2.4 | F 1.96 | M 2.39 | W 2.67 | P 2.8 | G 3.21 | H 1.94 | I 1.22 | E 2.88 | Q 3.41 | T 3.29 | C 2.14 | A 1.87 | S 2.62 | R 2.13
K17: Y 2.38 | I 2.46 | F 2.1 | M 2.8 | W 1.92 | E 2.99 | V 2.64 | Q 2.49 | D 3.25 | L 2.61 | A 3.39 | C 1.99 | S 2.91 | N 2.57 | G 3.5 | R 3.04 | T 3 | P 3.02 | H 2.99
A8: L 2.65 | K 3.23 | H 2.68 | E 3.25 | G 2.4 | Q 2.5 | S 2.55 | T 2.87 | W 2.46 | F 2.03 | R 2.3 | I 2.17 | V 2.57 | C 2.52 | Y 2.04 | D 3.43 | N 2.58 | M 2.62 | P 2.04
A6: H 3.38 | K 2.67 | R 2.19 | G 3.13 | S 3 | E 3.24 | V 2.89 | Y 2.93 | W 1.91 | T 2.99 | I 2.43 | L 1.63 | C 2.72 | D 1.79 | F 3.04 | N 2.88 | P 3.92 | M 2.27 | Q 3.58
K4: Y 2.58 | D 2.97 | Q 3.95 | H 3.7 | E 2.1 | S 3.36 | C 2.8 | F 2.34 | W 2.25 | P 2.94 | A 2 | T 3.38 | M 3.46 | L 2.13 | I 1.87 | V 2.6 | N 2.69
T2: I 2.45 | F 1.95 | P 3.41 | D 2.88 | V 2.5 | C 2.16 | R 2.74 | L 2.17 | Y 2.36 | H 3.44 | W 1.58 | M 2.34 | N 3.75 | S 2.96 | A 2.69 | E 2.98 | K 2.81 | G 3.28 | Q 2.61
A12: W 2.09 | I 2.69 | K 3.22 | E 2.83 | D 3.94 | L 1.34 | V 2.16 | T 3.28 | C 2.87 | Q 3.11 | G 3.21 | S 2.39 | R 3.67 | Y 2.19 | M 2.22 | N 2.49 | F 1.94 | P 2.87 | H 2.17
S10: K 2.1 | A 2.86 | C 2.01 | H 3.28 | E 2.74 | P 3.1 | V 3.34 | F 2.35 | Y 2.03 | T 3.41 | W 2.47 | I 2.55 | D 2.96 | L 3.35 | R 3.92 | M 2.02 | G 2.88 | N 2.99
R13: V 2.56 | G 2.86 | E 3.08 | A 3.26 | K 3.08 | P 2.48 | D 2.85 | T 2.66 | W 1.8 | I 2.7 | F 2.29 | L 2.36 | S 2.8 | H 2.42 | N 3.63 | C 3.12 | M 2.39 | Q 3.48
P5: E 2.52 | Q 2.63 | N 3.24 | V 2.69 | T 3.29 | A 2.93 | K 2.92 | H 2.91 | G 2.75 | D 3.8 | M 2.92 | S 2.56 | I 1.73 | C 2.05 | R 2.48 | Y 2.14 | W 2.48 | L 3.36 | F 1.52
A16: Y 2.53 | T 2.69 | G 3.15 | H 3.91 | M 2.57 | I 2.28 | R 3.35 | K 3.44 | P 3.42 | N 2.72 | L 2.35 | F 2.48 | W 1.82 | S 3.36 | E 2.15 | C 2.72 | Q 2.19 | D 3.04 | V 3.28
A9: S 2.95 | T 3.11 | Q 2.77 | D 2.9 | W 1.9 | G 2.71 | N 3.58 | K 2.64 | V 3.28 | P 3.03 | R 2.42 | L 1.79 | F 2.62 | C 2.73 | I 1.79 | Y 3.04 | M 2.2 | H 3.37 | E 3.65
R18: N 2.31 | F 2.71 | V 2.91 | E 3.33 | C 2.62 | S 2.96 | Y 2.27 | D 3 | K 2.55 | T 2.73 | W 2.55 | P 2.38 | M 2.38 | Q 2.52 | G 3.22 | I 2.63 | L 2.55 | H 2.91 | A 3.3
V3: K 3.29 | R 2.98 | E 3.22 | T 3.5 | D 3.02 | M 2.31 | N 3.22 | L 2.75 | C 3.73 | S 2.62 | Y 2.68 | I 3.59 | A 2.85 | H 3.23 | F 3.79
L15: S 3.75 | D 4.11 | I 3.14 | R 3.92 | N 3.56 | F 2.08 | A 4.08 | T 3.35 | M 2.58 | C 3.14 | E 4.42 | Y 2.84 | V 4.02 | Q 3.34 | P 3.75 | H 3.32 | G 4.08 | K 3.48
R19: F 1.23 | H 1.51 | A 1.79 | D 2.88 | G 2.85 | I 1.77 | C 1.6 | E 3.49
